Here are results for four molecules from patent US20220372154A1 (APEXIGEN, published 2022).

In assay [1] the target is T1, human TNFR2 expressed on cells (human, UniProt P20333 23-461).
T1 construct: whole, on cells; also called hTNFR2 (cell); CHO-TNFR2
T1 sequence (looked up): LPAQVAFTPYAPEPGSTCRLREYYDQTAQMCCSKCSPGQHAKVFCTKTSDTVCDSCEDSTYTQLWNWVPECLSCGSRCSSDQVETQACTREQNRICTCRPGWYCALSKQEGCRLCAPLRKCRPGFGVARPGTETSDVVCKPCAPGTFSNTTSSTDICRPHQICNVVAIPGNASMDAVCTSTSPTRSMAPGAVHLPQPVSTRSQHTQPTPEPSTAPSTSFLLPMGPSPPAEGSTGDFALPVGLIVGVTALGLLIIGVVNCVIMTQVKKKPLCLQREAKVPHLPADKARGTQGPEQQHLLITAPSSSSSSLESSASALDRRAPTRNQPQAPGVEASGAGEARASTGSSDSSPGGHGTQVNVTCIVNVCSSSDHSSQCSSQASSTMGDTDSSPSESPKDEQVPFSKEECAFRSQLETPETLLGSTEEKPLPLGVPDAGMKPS
Kind of assay: flow cytometry, cell-expressed human TNFR2.

In assay [2] the target is T1, human TNFR2 expressed on cells. The assay can be described thus: cell binding on TNFR2-overexpressing (OE) cells.
Assay [3] has the same target. Kind of assay: blocking of biotinylated TNF-α on TNFR2-CHO cells, flow cytometry. The method, then: TNFR2-overexpressing CHO cells were plated at 100,000 cells per well. Cells were incubated with the indicated antibodies for 30 minutes on ice. […] Cells were analyzed using Cytoflex or MACSQuant flow cytometer. Assay was repeated twice.
The target of assay [4] is T2, human TNFR2-His tagged protein (soluble) (human, UniProt P20333 23-257).
T2 construct: also called hTNFR2 (soluble); soluble TNFR2-His; not shown: His tag
T2 sequence (looked up): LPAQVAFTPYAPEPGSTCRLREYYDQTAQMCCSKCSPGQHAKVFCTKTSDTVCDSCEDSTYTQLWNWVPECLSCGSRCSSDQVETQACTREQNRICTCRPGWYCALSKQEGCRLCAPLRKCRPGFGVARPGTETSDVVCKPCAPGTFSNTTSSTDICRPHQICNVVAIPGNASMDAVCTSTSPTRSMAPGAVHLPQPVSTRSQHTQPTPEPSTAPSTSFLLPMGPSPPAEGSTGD
The assay can be described thus: ELISA, soluble human TNFR2.

Assay [5] deals with T3, human TNFR1-His tagged protein (human, UniProt P19438 30-211, limits assumed).
T3 construct: also called soluble human TNFR1; not shown: His tag
T3 sequence (looked up): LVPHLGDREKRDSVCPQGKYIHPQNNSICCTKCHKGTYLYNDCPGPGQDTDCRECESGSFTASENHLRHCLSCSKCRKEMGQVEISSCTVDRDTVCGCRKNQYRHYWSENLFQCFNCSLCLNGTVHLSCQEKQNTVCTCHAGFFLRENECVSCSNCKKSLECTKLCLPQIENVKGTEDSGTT
The assay can be described thus: ELISA on coated TNFR1-His (1 ug/mL), OD 450 nm. On the procedure: TNFR1-His tagged protein was coated on ELISA plates at 1 μg/mL at 4° C. overnight. Plates were washed, blocked, and antibodies were added at indicated concentrations for 1 hour at RT. Antibodies were washed and detected with anti-human IgG HRP for 1 hour. Assay was developed using TMB substrate for 10 minutes.

The target of assay [6] is T4, TNFR-Fc (UniProt P20333 23-257, limits assumed).
T4 construct: Printed only as TNFR-Fc; not shown: Fc part
T4 sequence (looked up): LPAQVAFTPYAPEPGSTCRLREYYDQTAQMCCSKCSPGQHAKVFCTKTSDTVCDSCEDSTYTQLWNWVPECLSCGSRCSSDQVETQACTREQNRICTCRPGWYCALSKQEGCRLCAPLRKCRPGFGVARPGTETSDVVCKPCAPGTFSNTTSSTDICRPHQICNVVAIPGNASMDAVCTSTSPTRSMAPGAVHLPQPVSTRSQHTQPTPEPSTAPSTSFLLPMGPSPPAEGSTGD
Kind of assay: TNF-α blocking ELISA (soluble).

The target in assay [7] is T5, cynomolgus TNFR2-His tagged protein (cynomolgus, UniProt A0A2K5VET2 132-366).
T5 construct: also called Cyno TNFR2; cynomolgus TNFR2 protein; not shown: His tag
T5 sequence: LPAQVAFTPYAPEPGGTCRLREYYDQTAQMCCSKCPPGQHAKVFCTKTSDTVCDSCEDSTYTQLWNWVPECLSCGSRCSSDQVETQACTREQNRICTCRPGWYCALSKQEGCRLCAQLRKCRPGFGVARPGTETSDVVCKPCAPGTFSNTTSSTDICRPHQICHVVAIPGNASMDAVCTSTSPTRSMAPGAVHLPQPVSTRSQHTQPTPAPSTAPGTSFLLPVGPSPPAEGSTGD
The assay can be described thus: ELISA, cynomolgus TNFR2.

Assay [8] deals with T4, TNFR-Fc. Kind of assay: TNF-α blocking ELISA on coated TNFR-Fc. In a few lines: (§1)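 TNFR2-His ELISAs: human or cynomolgus protein coated at 1 μg/mL overnight at 4 °C, BSA-blocked, antibodies 1 h RT, anti-human HRP, TMB 3–5 min. Flow: 200,000 human TNFR2-CHO cells, antibody 1 h, anti-human IgG BV421 20 min. Blocking ELISA: TNFR-Fc coated 1 ug/mL, antibodies 1 h RT, TMB 5–7 min.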

Assay [9] concerns the target T5, cynomolgus TNFR2-His tagged protein. Kind of assay: ELISA on coated cynomolgus TNFR2-His. In a few lines:
as §1

Assay [10] addresses T6, soluble mouse TNFR2 (mouse, UniProt P25119 23-258, limits assumed).
T6 sequence (looked up): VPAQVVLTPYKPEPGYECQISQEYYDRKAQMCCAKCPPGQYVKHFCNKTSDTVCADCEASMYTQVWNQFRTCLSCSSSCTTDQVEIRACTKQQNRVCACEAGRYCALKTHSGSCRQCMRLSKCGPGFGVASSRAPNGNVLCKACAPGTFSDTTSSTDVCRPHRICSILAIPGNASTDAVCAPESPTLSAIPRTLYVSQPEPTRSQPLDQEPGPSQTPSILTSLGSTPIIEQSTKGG
The assay can be described thus: binding screen on soluble mouse TNFR2 (mouse cross-reactivity).

Assay [11] has as its target T7, TNFR2 PLAD or CRD1 peptide (aa 17-54 of mature TNFR2) (human).
T7 construct: Range counted on mature TNFR2
T7 peptide: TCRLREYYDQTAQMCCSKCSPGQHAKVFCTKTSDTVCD
Kind of assay: peptide-binding ELISA (potential peptide bin).

In assay [12] the target is T1, human TNFR2 expressed on cells. The assay can be described thus: flow cytometry on CHO cells expressing human TNFR2. In a few lines:
as §1

The target of assay [13] is T2, human TNFR2-His tagged protein (soluble). Kind of assay: ELISA on coated human TNFR2-His. In a few lines: as §1

B1: humanized antibody h600_HB_11D7.1 (antibody, V domains shown)
VH: EVQLVESGGGLVQPGGSLRLSCAASGFDFSRYYMSWVRQAPGKGLEWVGYIDPIFGNTYYASWVNGRFTISSDNAKNSLYLQMNSLRAEDTAVYYCARDGDAGYDGYGYGTDLWGQGTLVTVSS
VL: DIQMTQSPSSLSASVGDRVTITCQASENIYSGLAWYQQKPGKVPKLLIVSAFTLASGVPSRFSGSGSGTDFTLTISSLQPEDVATYYCQTYYYGSVTYFNAFGGGTKVEIK
Consider B1, for which the values for the EC50 in [1], in assay [4] and in assay [7] were 0.239 nM, 0.091 nM and 0.054 nM, respectively. Also, in assay [2], the affinity, expressed as Kd, was 0.201 nM. Moreover, the 50% inhibitory concentration (IC50) was determined as 0.323 nM in assay [3] and 2.96 nM in assay [6]. Also, the binding result in [5] is given as “binds”.

B2: humanized antibody clone 25-31 (h600_24_31) (antibody, V domains shown)
VH: EVQLVESGGGLVQPGGSLRLSCAASGFSLSSYDMSWVRQAPGKGLEWVGYIWSSGSAYYATWAEGRFTISRDNSKNTLYLQMNSLRAEDTAVYYCARRYVGSSYDTWGQGTLVTVSS
VL: DIQMTQSPSSLSASVGDRVTITCQSSQSVSSNNYLSWYQQKPGKAPKLLIYAASYLASGVPSRFSGSGSGTDFTLTISSLQPEDFATYYCLGDYDNDIDHAFGGGTKVEIK
notes: its heavy-chain CDRs are those of rab600_25_31
For B2, the EC50 in assay [1] amounted to 12.1 nM; in [4], 0.72 nM; in assay [7] it was 1.86 nM. Besides, the dissociation constant Kd in assay [2] is 12.1 nM. Also, the binding result in assay [5] was “binds”.

B3: chimeric antibody clone 6 (rab600_23_6) (antibody, V domains shown)
VH: QEQLKESGGRLVTPGTPLTLTCTASGFSLSSYYVSWVRQAPGKGLEWIGIIHSDGSIYYATWAKGLFTISRTSTTVDLKATSLTTEDTATYFCVRGYPGYYTSTFNRLDLWGQGTLVTVSS
VL: AYDMTQTPASVEVAVGGTVTIKCQASQTISNELSWYQQKSGQPPKLLIYRASTLASGVPSRFSGSGSGTEFTLTISGVECDDAATYYCQQGYTTNNVDNLFGGGTEVVVK
In assay [8], B3 returned an IC50 of 5.63 nM. In addition, the EC50 turned out to be 0.104 nM in [9], 0.277 nM in assay [12] and 0.147 nM in assay [13]. The binding result in assay [10] is reported as “no binding”; in assay [11] it was “binds”.

B4: chimeric antibody clone 81 (rab600_23_81) (antibody, V domains shown)
VH: QSLEESGGRLVTPGTPLTLTCTASGFSLSNYYVSWVRQAPGKGLEWIGIIETGGNLYYASWAKGRFSLSKTSTTVDLKITSPTAEDTATYFCVRGYPGYYTHTFNRLDLWGQGTLVTVSS
VL: AYDMTQTPASVEVAVGGTVTIKCQASESIANELSWYQRKSGQPPKLLIYRASTLASGVPSRFKGSGSGTQFTLTISGVECDDAATYYCQQGYTTINIDNLFGGGTEVVVK
As to B4, the concentration for a half-maximal effect (EC50) in assay [9] was found to be 4.04 nM; in assay [12], 9.44 nM; in [13], 7.39 nM. Also, the binding result is given as “no binding” in assay [10] and “binds” in assay [11].
